# From the supplement of paper PMC12855868
# B1: library; numbered along this chain (parent)
# chain: MAAAGGARLLRAASAVLGGPAGRWLHHAGSRAGSSGLLRNRGPGGSAEASRSLSVSARARSSSEDKITVHFINRDGETLTTKGKVGDSLLDVVVENNLDIDGFGACEGTLACSTCHLIFEDHIYEKLDAITDEENDMLDLAYGLTDRSRLGCQICLTKSMDNMTVRVPETVADARQSIDVGKTS
# Variants of: B1
# Test: scaled log2 fold change in cell abundance, elesclomol vs control (0 = silent mean, 1 = nonsense mean) (scaled log2 ratio); higher = higher viability under elesclomol (loss of FDX1 cuproptosis function)
# Conditions: glucose 10 mM
# Experimental: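 Deep mutational scan of full-length human FDX1: a pooled saturation-mutagenesis ORF library (every residue 2-184 mutated to all 19 amino acids plus stop, and silent codons where available) was expressed by lentivirus in FDX1-knockout ABC1 (14 days) or HEK293T (11 days) cells grown with elesclomol (ES) or DMSO control. Variant abundance came from ORF sequencing. The log2 fold change (ES vs control, mean of duplicates) was centred on the silent-variant mean (0) and scaled to the nonsense-variant mean (1). Higher values mean greater viability under ES, i.e. loss of FDX1 function in cuproptosis.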
# [1] = with ABC1 FDX1 KO, elesclomol 5 nM, 14 days
# [2] = with HEK293T FDX1 KO, elesclomol 40 nM, 11 days
# 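Further: variant abundance is its share of total variant reads in each endpoint sample, from next-generation sequencing of the integrated ORF PCR-amplified out of genomic DNA.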
Variant,scaled log2 fold change [1],scaled log2 fold change [2]
D101W,0.326,-0.257
D101Y,0.239,1.05
D101N,-0.201,-0.0138
D101I,-0.248,-0.191
D101T,-0.218,-0.744
D101M,0.241,0.684
D101F,-0.332,0.0209
D101K,0.0609,0.803
L98M,0.0485,0.18
L98E,0.00205,0.172
L98Y,0.000145,-0.257
L98S,0.421,-0.0745
L98N,0.309,0.504
L98C,-0.21,-0.505
L98F,-0.0232,-0.902
L98P,-0.901,0.205
L98K,0.356,0.0251
L98H,0.186,0.86
L98D,0.341,0.871
L98Q,0.167,-0.327
L98G,0.225,0.327
L98R,0.136,0.607
L98V,-0.0512,-0.662
L98T,-0.168,0.331

Variant,scaled log2 fold change [1],scaled log2 fold change [2]
L98A,-0.194,-1.06
L98W,0.476,0.189
L98I,-0.0119,-0.482
F103S,0.912,0.923
F103A,0.92,0.527
F103E,0.983,0.679
F103W,0.392,-1.07
F103I,0.186,0.171
F103N,1.06,1.03
F103L,0.27,0.542
F103M,0.347,0.516
F103V,0.282,-0.441
F103H,0.673,1.17
F103D,1.07,0.779
F103K,1.2,1.14
F103R,1.09,1.06
F103G,1.04,2.28
F103T,1.16,0.355
F103Q,0.935,1.02
F103P,1.14,1.17
F103Y,0.192,-0.0547
F103C,0.693,0.536
E95D,0.126,0.1
E95R,-0.296,-0.0027

Variant,scaled log2 fold change [1],scaled log2 fold change [2]
E95V,0.0731,-0.123
E95C,-0.0222,–
E95A,0.102,-0.337
E95K,0.0162,-0.042
E95H,-0.106,-0.636
E95N,0.2,–
E95Y,-0.143,-0.228
E95M,0.0861,-0.356
E95I,0.142,-0.228
E95T,-0.37,–
E95Q,0.0772,-0.398
E95G,-0.0448,0.982
E95F,-0.339,-0.0798
E95P,0.178,-0.222
E95S,0.146,0.071
E95W,0.0294,-0.33
E95L,-0.168,-0.709
V93G,0.574,-0.293
V93F,0.266,-0.377
V93M,0.416,0.244
V93N,0.524,0.217
V93S,0.115,-0.534
V93P,0.924,0.209
V93T,-0.217,-0.372

Variant,scaled log2 fold change [1],scaled log2 fold change [2]
V93Y,-0.0809,1.12
V93L,0.0816,0.422
V93I,0.123,-0.612
V93K,-0.498,–
V93H,-0.124,-0.875
V93R,0.275,0.16
V93W,0.155,0.488
V93Q,0.0948,-0.698
D99A,0.0591,-1.37
D99L,-0.286,-0.152
D99V,0.0908,-1.19
D99I,0.14,-0.0831
D99K,0.114,-0.24
D99S,-0.273,-0.316
D99M,-0.0783,0.944
D99Y,-0.0205,0.198
D99C,0.108,0.138
D99G,-1,-0.777
D99R,-0.084,0.945
D99N,-0.0926,-0.216
D99Q,0.0501,-1.25
D99E,0.144,0.199
D99P,0.167,-0.37
D99F,-0.0227,0.0629

Variant,scaled log2 fold change [1],scaled log2 fold change [2]
D99T,0.182,-0.092
D99W,-0.0217,-0.818
D99H,-0.403,-0.137
V94D,-0.313,–
V94L,0.0554,-0.336
V94M,-0.224,1.17
V94K,-0.573,-0.482
V94T,-0.0231,–
V94H,-0.328,0.317
V94N,-0.345,-1.27
V94F,-0.376,-0.411
V94G,-0.377,–
V94E,0.00926,-0.058
V94C,-0.491,0.199
V94Q,0.235,-0.226
V94I,-0.52,0.00216
V94P,0.617,0.378
V94A,0.0221,0.0839
V94Y,-0.0972,0.515
V94S,-0.223,-1
V94W,0.0681,0.96
V94R,-0.258,1
